The record followed here is paper doi:10.1101/2023.12.01.569227 (bioRxiv, 2023).

First the molecules themselves.
B1: VHH-72 (VHH)
VHH: QVQLQESGGGLVQAGGSLRLSCAASGRTFSEYAMGWFRQAPGKEREFVATISWSGGSTYYTDSVKGRFTISRDNAKNTVYLQMNSLKPDDTAVYYCAAAGLGTVVSEWDYDYDYWGQGTQVTVSS
B2: Seq3 (VHH)
VHH: QVQLQESGGGLVQAGGSLRLSCAASGRMFSETAMGWFRQAPGKEREFVATISWSGRGTYYTDSVKGRFTISRDNAKNTVYLQMNSLKPDDTAVYYCAGAGYGVYVSEWDYDYDYWGQGTQVTVSS
B3: Seq7 (VHH)
VHH: QVQLQESGGGLVQAGGSLRLSCAASGLKFSETAMGWFRQAPGKEREFVATISWSGRSTYYTDSVKGRFTISRDNAKNTVYLQMNSLKPDDTAVYYCARAGYGVVVSEWDYDYDYWGQGTQVTVSS
B4: Seq8 (VHH)
VHH: QVQLQESGGGLVQAGGSLRLSCAASGYGFSEYAMGWFRQAPGKEREFVATISWSGRSTYYTDSVKGRFTISRDNAKNTVYLQMNSLKPDDTAVYYCARAGWGVVVSEWDYDYDYWGQGTQVTVSS
B5: Seq5 (VHH)
VHH: QVQLQESGGGLVQAGGSLRLSCAASGRMFSEYAMGWFRQAPGKEREFVATISWSGKGTYYTDSVKGRFTISRDNAKNTVYLQMNSLKPDDTAVYYCARAGFGVYVSEWDYDYDYWGQGTQVTVSS
B6: Seq4 (VHH)
VHH: QVQLQESGGGLVQAGGSLRLSCAASGRSFSEYAMGWFRQAPGKEREFVATISWSGRATYYTDSVKGRFTISRDNAKNTVYLQMNSLKPDDTAVYYCARAGYGVVVSEWDYDYDYWGQGTQVTVSS
B7: Seq2 (VHH)
VHH: QVQLQESGGGLVQAGGSLRLSCAASGRGFSEYAMGWFRQAPGKEREFVATISWSGGGTYYTDSVKGRFTISRDNAKNTVYLQMNSLKPDDTAVYYCARAGFGVWVSEWDYDYDYWGQGTQVTVSS
B8: Seq6 (VHH)
VHH: QVQLQESGGGLVQAGGSLRLSCAASGRLFSEYAMGWFRQAPGKEREFVATISWSGRSTYYTDSVKGRFTISRDNAKNTVYLQMNSLKPDDTAVYYCAKAGWGVVVSEWDYDYDYWGQGTQVTVSS
B9: Seq1 (VHH)
VHH: QVQLQESGGGLVQAGGSLRLSCAASGRTFSETAMGWFRQAPGKEREFVATISWSGRGTYYTDSVKGRFTISRDNAKNTVYLQMNSLKPDDTAVYYCAYAGYGVVVSEWDYDYDYWGQGTQVTVSS
B10: Seq11 (VHH)
VHH: QVQLQESGGGLVQAGGSLRLSCAASGRKFSEYAMGWFRQAPGKEREFVATISWSGRLTYYTDSVKGRFTISRDNAKNTVYLQMNSLKPDDTAVYYCAGAGYGVVVSEWDYDYDYWGQGTQVTVSS

Some results are limits rather than exact numbers.

The first test has as its target SARS-CoV-2 RBD (SARS-CoV-2, Wuhan-Hu-1, UniProt P0DTC2, biotinylated with an EZ-Link NHS-PEG4 biotinylation kit). In words: BLI.
Turning to B1, the “fold weaker binding than to SARS-CoV-1 RBD” value is more than 5 fold.

The target of the next test is SARS-CoV-1 RBD (SARS-CoV-1 (SARS-CoV), Urbani, UniProt P59594, biotinylated with an EZ-Link NHS-PEG4 biotinylation kit). In words: BLI. For orientation: BLI is a label-free optical method that tracks binding on a fibre tip over time.
Take B1: the binding result is recorded as “binds”.
Same read-out and setting: in the case of B2 it was “binds”; in that of B3, “binds”; in that of B4, “binds”.
On to B5, for which the binding result is reported as “binds”.
The same measure, in the same setting: in the case of B6 it was “binds”; in that of B7, “binds”.
As for B8, the binding result is on record as “binds”.
On the same count and under the same terms, the value for B9 was “binds”.
Same read-out and setting: in the case of B10 it was “binds”.
